B1: HESX1 (parent)
chain: SKYENYFSASERLSLKRELSWYRG
B2: TRIM63 (parent)
chain: FRCPTCRHEVIMDRHGVYGLQRNL

For 94 variants, protein stability index results are on record in the supplement of paper PMC10567573.
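Further: lentivirally expressed fusions sorted by FACS into six bins by GFP to DsRed ratio, PSI derived from sequencing read proportions per bin multiplied by bin number.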

The first data set covers variants of B1. The experiment in a line: protein stability index of a GFP-peptide fusion (GPS, HEK-293T) (PSI 1-6); higher = more stable. The note with it: c terminus: a fixed tail appended.
As to SKYENYDSASERLSLKRELSWYRG, the protein stability index was determined as 2.39.

Regarding SKYENYGSASERLSLKRELSWYRG, the protein stability index is 1.42.

For the variant SKYENYESASERLSLKRELSWYRG, the protein stability index amounted to 1.96.

Take SKYQNYFSASERLSLKRELSWYRG: the protein stability index was determined as 1.56.

In the case of SKYANYFSASERLSLKRELSWYRG, the protein stability index was 1.61.

As for SKYLNYFSASERLSLKRELSWYRG, the protein stability index came to 2.23.

For SKYSNYFSASERLSLKRELSWYRG, the protein stability index was found to be 1.27.

Regarding SKYRNYFSASERLSLKRELSWYRG, the protein stability index worked out at 2.54.

For the variant SKYMNYFSASERLSLKRELSWYRG, the protein stability index is 2.02.

In the case of SKYHNYFSASERLSLKRELSWYRG, the protein stability index amounted to 1.17.

Consider SKYYNYFSASERLSLKRELSWYRG, for which the protein stability index was 2.33.

Consider SKYDNYFSASERLSLKRELSWYRG, for which the protein stability index was 2.45.

With SKYGNYFSASERLSLKRELSWYRG, the protein stability index amounted to 2.13.

Regarding SKYCNYFSASERLSLKRELSWYRG, the protein stability index worked out at 2.24.

With SKYVNYFSASERLSLKRELSWYRG, the protein stability index turned out to be 2.1.

As for SKYPNYFSASERLSLKRELSWYRG, the protein stability index was 2.06.

As for SKYINYFSASERLSLKRELSWYRG, the protein stability index was 1.26.

In the case of SKYNNYFSASERLSLKRELSWYRG, the protein stability index is 1.71.

Turning to SKYTNYFSASERLSLKRELSWYRG, the protein stability index amounted to 2.98.

As for SKYENDFSASERLSLKRELSWYRG, the protein stability index is 2.91.

As to SKYENAFSASERLSLKRELSWYRG, the protein stability index came to 2.85.

On to SKYENFFSASERLSLKRELSWYRG, for which the protein stability index was found to be 2.88.

Turning to SKYENMFSASERLSLKRELSWYRG, the protein stability index was 2.15.

On to SKYENHFSASERLSLKRELSWYRG, for which the protein stability index came to 2.25.

Turning to SKYENVFSASERLSLKRELSWYRG, the protein stability index was 1.27.

For SKYENKFSASERLSLKRELSWYRG, the protein stability index was 2.05.

In the case of SKYENNFSASERLSLKRELSWYRG, the protein stability index came to 2.79.

In the case of SKYENQFSASERLSLKRELSWYRG, the protein stability index came to 1.96.

For the variant SKYENRFSASERLSLKRELSWYRG, the protein stability index came to 1.84.

For SKYENEFSASERLSLKRELSWYRG, the protein stability index was found to be 2.3.

Take SKYENGFSASERLSLKRELSWYRG: the protein stability index is 2.56.

Turning to SKYENLFSASERLSLKRELSWYRG, the protein stability index turned out to be 2.85.

Turning to SKYENSFSASERLSLKRELSWYRG, the protein stability index worked out at 2.16.

On to SKYENTFSASERLSLKRELSWYRG, for which the protein stability index stood at 2.63.

SKYENCFSASERLSLKRELSWYRG: the protein stability index was 1.84.

In the case of SKYEFYFSASERLSLKRELSWYRG, the protein stability index amounted to 1.03.

As to SKYEQYFSASERLSLKRELSWYRG, the protein stability index amounted to 2.12.

In the case of SKYEIYFSASERLSLKRELSWYRG, the protein stability index came to 2.23.

With SKYETYFSASERLSLKRELSWYRG, the protein stability index came to 2.24.

As to SKYEHYFSASERLSLKRELSWYRG, the protein stability index was determined as 1.9.

For the variant SKYEDYFSASERLSLKRELSWYRG, the protein stability index stood at 1.71.

With SKYEAYFSASERLSLKRELSWYRG, the protein stability index is 2.03.

Regarding SKYEYYFSASERLSLKRELSWYRG, the protein stability index was determined as 2.24.

For the variant SKYECYFSASERLSLKRELSWYRG, the protein stability index was determined as 1.51.

In the case of SKYEPYFSASERLSLKRELSWYRG, the protein stability index was determined as 1.63.

As for SKYEKYFSASERLSLKRELSWYRG, the protein stability index turned out to be 1.42.

As for SKVENYFSASERLSLKRELSWYRG, the protein stability index is 3.67.

Take SKPENYFSASERLSLKRELSWYRG: the protein stability index turned out to be 1.66.

SKCENYFSASERLSLKRELSWYRG: the protein stability index was 1.79.

Consider SKNENYFSASERLSLKRELSWYRG, for which the protein stability index amounted to 1.72.

On to SKQENYFSASERLSLKRELSWYRG, for which the protein stability index came to 1.61.

For the variant SKSENYFSASERLSLKRELSWYRG, the protein stability index came out at 2.97.

On to SKFENYFSASERLSLKRELSWYRG, for which the protein stability index came to 1.48.

In the case of SKLENYFSASERLSLKRELSWYRG, the protein stability index came to 1.97.

SKKENYFSASERLSLKRELSWYRG: the protein stability index is 3.46.

As for SKGENYFSASERLSLKRELSWYRG, the protein stability index stood at 2.75.

With SKDENYFSASERLSLKRELSWYRG, the protein stability index was found to be 2.29.

SKMENYFSASERLSLKRELSWYRG: the protein stability index is 1.59.

In the case of SKIENYFSASERLSLKRELSWYRG, the protein stability index stood at 2.26.

Regarding SKRENYFSASERLSLKRELSWYRG, the protein stability index turned out to be 2.13.

Regarding SHYENYFSASERLSLKRELSWYRG, the protein stability index is 1.8.

On to SCYENYFSASERLSLKRELSWYRG, for which the protein stability index was 2.23.

Take SSYENYFSASERLSLKRELSWYRG: the protein stability index was found to be 1.82.

As for SEYENYFSASERLSLKRELSWYRG, the protein stability index stood at 2.05.

Consider STYENYFSASERLSLKRELSWYRG, for which the protein stability index worked out at 2.34.

As to SQYENYFSASERLSLKRELSWYRG, the protein stability index was 2.65.

With SFYENYFSASERLSLKRELSWYRG, the protein stability index was determined as 1.57.

As to SAYENYFSASERLSLKRELSWYRG, the protein stability index came to 2.09.

Consider SIYENYFSASERLSLKRELSWYRG, for which the protein stability index turned out to be 1.45.

Take SPYENYFSASERLSLKRELSWYRG: the protein stability index amounted to 1.96.

SGYENYFSASERLSLKRELSWYRG: the protein stability index came out at 2.31.

Turning to SVYENYFSASERLSLKRELSWYRG, the protein stability index is 1.77.

With SMYENYFSASERLSLKRELSWYRG, the protein stability index is 1.7.

As for SDYENYFSASERLSLKRELSWYRG, the protein stability index is 2.19.

Consider SLYENYFSASERLSLKRELSWYRG, for which the protein stability index worked out at 1.25.

As for SRYENYFSASERLSLKRELSWYRG, the protein stability index turned out to be 1.64.

For the variant SYYENYFSASERLSLKRELSWYRG, the protein stability index was 1.81.

As for LKYENYFSASERLSLKRELSWYRG, the protein stability index amounted to 2.06.

As for EKYENYFSASERLSLKRELSWYRG, the protein stability index came to 1.76.

In the case of HKYENYFSASERLSLKRELSWYRG, the protein stability index stood at 2.34.

For the variant AKYENYFSASERLSLKRELSWYRG, the protein stability index was found to be 1.71.

Take MKYENYFSASERLSLKRELSWYRG: the protein stability index was 1.36.

With YKYENYFSASERLSLKRELSWYRG, the protein stability index came out at 2.77.

In the case of KKYENYFSASERLSLKRELSWYRG, the protein stability index stood at 1.4.

For the variant NKYENYFSASERLSLKRELSWYRG, the protein stability index was 1.74.

Consider GKYENYFSASERLSLKRELSWYRG, for which the protein stability index came out at 1.9.

With CKYENYFSASERLSLKRELSWYRG, the protein stability index worked out at 2.04.

Take IKYENYFSASERLSLKRELSWYRG: the protein stability index stood at 1.61.

Variants of B2 are the subject of the next data set. The data set is described as above. The note with it: c terminus: a fixed tail appended.
With FRCPTCRHEVIMDRHGVYVLQRNL, the protein stability index is 2.14.

On to FRCPTCRHEVIMDRHGVYRLQRNL, for which the protein stability index was 2.31.

Consider FRCPTCRHEVIMDRHGVYTLQRNL, for which the protein stability index was found to be 2.8.

Take FRCPTCRHEVIMDRHGVYYLQRNL: the protein stability index came out at 2.92.

In the case of FRCPTCRHEVIMDRHGVYSLQRNL, the protein stability index stood at 2.21.

Turning to FRCPTCRHEVIMDRHGVYWLQRNL, the protein stability index came out at 3.11.
